14 sequences from a protein production outcome set (Wang et al. 2014) can be followed below.

This data set can be described thus: label from the status in PepcDB records.
Turning to “MTDKKDFAASEHNNNDNIHAEVVPRQGISIIWFVPFIALIFGLWLTAKVVSEQGTFITIEFDNGSGIIPNKTEIRYKGLVTGLVKKVVPSADLQRVIAEVEISKNFTDYLTENTRFWLVSADISLQGVSGLDTLISGSYITIMPDTNQEADSQDHFVALTEAPTLDMSTPGLHLTLHTDVLGSISENSPISFKQIPIGHVTGYHYKESSKKIGINIYIKPEFAHLVKENSLFYNTSGVQVTASLTGGVKVNTESLASIMAGGISVDNLSYQTELAPAKNGQTFPLHADFQSAEMGHEVELTLEWNSGIDHNAAILFQGLTIGVIESFSKIDPVSRKITATAKVNPRVVPYLTDQSQFYIVAPQISLAGLTNAKTLLTGNYLSIRPSLAGNPSNKFNVFSSKPPYKYTEPGLHLMLTSSDRSSLQIGSNVYYKQQVVGNIQAIETTAPERHLIHIHVQPKFSHYVNHSSRFYNNSGVKISANLLGVDIQAQSLQSILTGGIAFTSQNSTQESQKKLVKNGDSFSLYANNKLAEQNISFTLNYMASEHISSDTRLLYRGIEIGAIHQTKIQGNKQQLQLGLLPEYEHILKADTQFYIVKPNLSLSGASDTDALFGGTYITFNLGQGKAKNQFTLFSQPPVKLASSPGLQLSLSTDHANVATPGSAISYRGITIGQVDNVSLNKIDDEIKVNITIDEEHRGLLKSTSRFYNAGGMTISGGLSDFVVKTESIDAILRGGISFYNPEVLLPTSLITNTQVEELSNFTLFKHEEHAKDAGQTISIHFNDISGLKVNTKVIYQEQTLGTIERLIFTADKVGVTALVLLNDSGSQFARKGTKFWKIEPQIGLVGSKNVAALLDGAFIGLLPSHNVEAKLKNEFEALELAPTVEQLSYGLNIKLTTARLGSVRVGNPVLYRQIKVGKVIGIDLSATADQVNIFINIAKRYAPLVNGNSQFWNTSGINIEASIFSGINIDSESIETLIAGGIAFATPDIDENNDKEQNDETKSLPASFILHQDVDEDWLEWQPKIAINNQTTSAE”, the protein production entry is “failed”.

On to “MENQEVVLSIDAIQEPEQIKFNMSLKNQSERAIEFQFSTGQKFELVVYDSEHKERYRYSKEKMFTQAFQNLTLESGETYDFSDVWKEVPEPGTYEVKVTFKGRAENLKQVQAVQQFEVK”, for which the protein production entry was “not failed”.

Consider “MDTFDINTEINEDEINVEKIMEKIRENIRKQKGAGIFPEKIHGDLQQGSLLEVTPGESNIQRDLDYINSNWDIQNNSYFISSHRPFVGKFLVRGRDLVHGEIRRYVDPVFWKQTEFNGSTVRLLNDTAGKFIYYNNKIEQLQSEMDSKIEQLQSEMDSKIEHLRPELGNKIERLRSEFENQIEQLKSEIDDSIKAEVNSIISLMNLDIENKAWLASVLDGKIEKGYKNKKTGTPDPGDLDINYFRFEEQFRGSREDIKQRQSCFMNYFLGCSNVLDIGCGRGEFLELASEHGIGAKGVDIDDTMVDFCLSKGLNVVKQEAISYLESVDDKSLDGIFIDQVVEHLEPDYLIKLLKLCFQKLKYGYYIFAETVNPLSFVSFANFYIDMTHKKPIHPETLKFLLTSAGFRDVDTMFFSPVSEKARLQKVPINNDMEEWVKNYLDIYNHNLEKLNGILYGAQDYAVIGKK”, for which the protein production result is given as “failed”.

Regarding “MAVSPDDPLILVGRVAGGFGVRGEVRITTYTEDPLSIAGFKALKRQDGSPALTIASARKTKDGVVCRCPGVETKEAADALRGLRLYVPRSALPEPDDDEFYLTDLVGLTVRHIQTDQLLGRVKSVQNFGAGDILEITPDLGGPTWYLPFTRAAVPEVRVSEGLILADPPALVGDHEGPEEKGLDENEELGDRDLEHHHHHH”, the protein production result is given as “failed”.

Consider “MCEIFIRANQRSYSVQARSLRLHGVATSVRLEQLFWDVLEEIAARDGMRVTQLIERLYDELVQYRGEAANFTSFLRVCCLRYQVLQAEGRIPADATVPIRSLDAQAVLRGLPANLYDSRPLG”, for which the protein production result is “not failed”.

“DLREVLDFMLKDEVSKLRKLLVKIKTKKIAEVEYENVVKALKLFKDNYEINEYLMDENTKEFLIKRNILFLNPVEEILKPQSYLVWNAIKRVLQNINDF”: the protein production entry was “not failed”.

With “MSNVCIVYSSTHHGNTEKVLNKIKEKFPETVLIKAGDFNPDDFNRYEAIGFASGIFYFKFAKPVDKLFEQALVGSVQKLFFIYTAGAVNAGFEKTLRKKTEQSGKICMGIFGCKGFDTFGPLKLIGGLNKNSPNEKDFKNAIDFFEKNIINALEHHHHHH”, the protein production result is “not failed”.

For the sequence “MFQENRTNELVILKEIAETLNTSNDTYHVLQAVLEKLLSVTGLTTGWIFLADEDGRYTKLIDYQLPEALTYENKRPMCEGECWCLRGFVDGKLERAVNIIECKRINNAIEYNWGDTEGILHHATVPLKAGGEKFGLLNVASPGKTHFSEEELVLLQSVAFQIGTALKRAKLYENEKRRAH”, the protein production entry is “failed”.

Turning to “MNNTLLYVITVLIWGSTWIAINYQLGEVAAEVSIVYRFGLAALCMFAYCRFKKLPLKFSAKQHLQLSAFGLTLFGFNYYLLYNAQAHINSALTSIAFSTLMMINILNARVWFKTRISSRVYYGGALGLMGIVTLFWPQISNVHFGDSTLLGLGLCLIGVVFASTGNMISIKNQHDNMPVLPATAWGMMYGSLFMFVVALVQGQTFNFSYTFEYISSLLYLSIFGSVIAFGCYLTLLARIGAHKASYATIMFPAVAVVISSFFEGFIWDSYTFIGLSLMLAGNLVVLAKPGMLKRFNSTSLKQVSCSDAK”, the protein production result is listed as “failed”.

On to “MGCAGSTQSQADGSVKKIRKPKPWKHTQPITKAELMKLREEFWDTAPHYGGRKEIWDALRAAAEADISLAQAIVDSAGVIVQNTDLTVCYDERGAKYELPKYVLSEPTNLEEEN”, for which the protein production result was “failed”.

Turning to “MENINFFIVFIEGILSIFSPCILPILPIYLSMLSNSSVEDIRDSNFKSGVLIRNTLFFTLGISTTFFILGSSISALSSFFNTNKNIIMILGGVIILFMGLFYLGVINLNILNREKRLNFKYKNMSPLSAFVLGFTFSFGWTPCIGPILASVLVMASSSKNLLMSNLLILVYTIGFILPFIIASLFYGKLFKKFDGIKKHMDLIKKISGIFIIIAGLIMLVGGIRNMNNEIKINNNPQINKSESANKDSKNESDNKKQEEGNKIPPIDFTLYDQYGNKHTLSEYKGKTIFLNFWATWCPPCRGEMPYIDELYKEYNENKDDVVILGVASPNLGREGSEEHIKNFLKEENHVFPVVLDENGAMVYQYGINAFPSTFIINKEGYITKYIPGAMTKETMKTLIESER”, the protein production entry is “failed”.

As for “MVQEIIVDSGDIEFLTTPKEYKQQLLSLIECARQRIFITALYLQDDEAGREILHALYQAKANFPTIEINIFVDFNRGQRGLIGEKASLGNRALYLKLAHEYPHTVNIYGVAVKRKELEHHHHHH”, the protein production result is listed as “failed”.

Consider “MTNFNIDFYAPAKEQRASTHSVMGLSSVPHPSPLFLETPYSELWSRHFGSAVVSLSVTADLAMLAVACKNRQLTVLSRDGELHWSHRLDDDITATAIASNHHVAVGTQQASDGAVAVYLFDADGRELFRTSLKSAVSSLTHSSNGEHLVIQCKNQAWYIASRVADTYQLSQANAEDVAQSKRNDALLAVKDRLLSEPNLYPHAASVAVSLEGTAAIGSLDGKIHLIDCQGKPLWSRQVDGEVWTLGISENGAIIASGCTDGTVKLLANHAHDAYNQYIHALQHSAERLKNTAEQQQAVSEILASLSQTGLAVYAVNWLQEGTLQLAPDALDEIVIKLLSEQVQRFPKHYASHFILAQTYQRRQEWHQAARHFTWAGQNERMKLKSFTLAAESFQKAGLPFAAKSAYRRARELTVTEEAKKTLYTLGRIHEEQGSITDAQKYYEVVFTLNPDYLDVCARLQNLNSPPATLTSRAVPENKDWYASLIRELLSPVSQHGFDLARQDNPAHSRTARLTSVAEHRKRLLSIVSEFSLDSVDNTADARLGYDVAAYMRYDCSVPEDEAKKSLELVNMLDCIKHYGPFSKSLDIGAATGRYPTLLAQQGIQAFGVDLEPMAVEFARKKSNGALNPQFHQGDARDLPFESTQFDLVTCMMGTAAHFPRQDVPTVMSEIHRCLVPGGFCVISTWDIECPHLTYLSIYSHEQKELMRQNAISRADVSEIAIAQGFVVEEIRGVGLLPESLGYELDLQQDGPERIRNLLDMDLAFQAKFPDLHGQMYMLIIRKI”, for which the protein production result is “failed”.

“MQTRLATKQDIDTLATLERQHLNDELISGGFHLEGQAFTRTELTQLVEKHWIVVAEVNGRIIGYVIAGRWSFFETWPIYRNMLQRLNRMNGDGPQLTTQNSCQYGPIWIDNAHRGQGVFEALIAGIYREVAPSFDYMVTFIADENERSLAAHTRKANM”: the protein production result is on record as “failed”.
